# B1: fragment antigen binding (Fab) of mAb CB6 (Fab, V domains shown)
# VH: EVQLVESGGGLVQPGGSLRLSCAASGFTVSSNYMSWVRQAPGKGLEWVSVIYSGGSTFYADSVKGRFTISRDNSMNTLFLQMNSLRAEDTAVYYCARVLPMYGDYLDYWGQGTLVTVSS
# VL: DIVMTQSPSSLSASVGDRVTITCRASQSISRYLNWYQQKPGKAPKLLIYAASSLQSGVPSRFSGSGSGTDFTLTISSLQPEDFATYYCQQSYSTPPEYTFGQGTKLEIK
# Molecular target: prototype SARS-CoV-2 tandem RBD homotrimer (PPP) (SARS-CoV-2, UniProt P0DTC2)
# Assay: SPR
binder,measurement,value
B1,Kd,24.3 nM

# — PMC10538664 (2023)
